Test: label from the status in PepcDB records
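Further: failed if final PepcDB status was selected cloned or expressed and not failed if soluble or beyond.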

| Sequence | protein production |
| --- | --- |
| MSVNGAFSPCVVIPCYNHGAMMASVLVRLAPLALPVFIVDDGSDAATQHVLNLLAAENDGVTLIRLANNSGKGAAVMRGIEAVAQAGFSHALQVDADGQHQIEDAPLLLDEAKTHPDCLISGRPRYDDSVPKSRLYGRYVTHVWVWIETLSLSIKDSMCGFRVYPVAATVSLLSRKSLGRRMDFDTEIMVRLYWAGTPSRFIETAVTYPENGLSHFDALHDNLRISWMHTRLFFGMLPRIPVLLMRQRQQHWAGVSERKGLLGMRFMLAVYQRLGRGVFTLFLWPVIAFYWLTGRTARKASQSWLRQIGEYAHQQDILLPKPLNSYHHFLRFGQAMLDKIASWRGDLHWGRDIDFAPGAQEAIEHGRQKGQLILASHLGDIEVCRALAPQVSGLVINALVFTENSQRFKQVLEEIAPQAGVNLIPVSNIGPDTAIMLQQKLDAGEWVAIVGDRTAVHRQRGGVRRVVWSPFLGKEAPFPQGPFVLAAALRCPVLLMFVIREQKKLRVYCEPFADSITLPRPTRQQALQQVVDRYAERLAHYALKSPLDWFNFFDFWSLPDDDGRTAGKKESLEHHHHHH | failed |
| WIAQIHKTKTNYFLNLLKEGKIPLRPGIKRLLDELRKNNIKIAIATTTTYENVSTLLQCTLGDSALEWFDVIGAGDIVSKKKPAPDIYEWVLNQLNLPAEACIAIEDSENGLKSATAAGIKTIITISEYTREQNFSYAALVLEDLESTDHTHQIAAQSFDKPLSVQTLSDLLN | failed |
| MKEDRVVFIFGPTAVGKSNILFHFPKNKAEIINVDSIQVYKEFNIASSKPSKNLMKHIKHHLVDFLDPEKDYTIGIFYEQALKIVKEIRQKKKIPIFVGGTAFYFKHLKDGFPSTPLVTSKIRIYVNNLLELKGKSYLLKELKNVDPIRFNMLNKNDIYRIKRSLEVYYQTGIPISQFQKKQSSEFKNIVIIGLKRSFEDLKTRISIRINEMLNSGLLSEIKGLFSKGYNENTPAFKGIGYNEFLLWKSRPCYGLNDIIGLINKNSFLYAKRQMTFFAKISDVLWLHPEDDLDNILNLIFKVDKEI | failed |
| MSDPSPIPARGRIASGGLVFLTVTTVAWGLSWPVTKYLISQWPPLPLRGLTGIAGSLALFGYAALRGDSLAVPRDQRLRLVISAFFNVTLWMAVMGLALLWLPAGETAVIAYTMPVWTALLAWPLLGERLTLRRVAALALAFGGIAALMGAAGFAASMTKLPGILLALTGALGFALGTIFLKRFPIALPGATSAAWQIGLGCIPVAVIGLAFEIPHVSVLTPLGWAGLVYLVVIQFCIAYVCWFAALQRLPASVAAIGTMATPVIGVVASAVALHEPLGVGQIAALVMTLTGVALATRS | failed |
| MLTVEPSEIQLTPGPILSLYLDLAGHLNWHIRSNLYLRGAEPRLDQKDPAAAAILELSLRLGSAPGGSVSCCWVTVSPGRMSVIDHVRDMAAAGLHSNVRLLSSLLLTMSNNNPELFSPSQKYQLLVYHADSLFHDKEYRNAVSKYTMALQQKKALSKTSKCLPSEIEVKYKMAECYTMLKLDKDAIAILDGIPSRQRTPKINMMLANLYKKAGQERPSVTSYKEVLRQCPLALDAILGLLSLSVKGAEVASMTMNVIQTVPNLDWLSVWIKAYAFVHTGDNSRAINTICSLEKKSLLRDNVDLLGSLADLYFRAGDNKNSVLKFEQAQMLDPYLIKGMDVYGYLLAREGRLEDVENLGCRLFNISDQHAEPWVVSGCHSFYSKRYSRALYLGAKAIQLNSNSVQALLLKGAALRNMGRVQEAIIHFREAIRLAPCRLDCYEGLIECYLASNSIREAMVMANNVYKTLGANAQTLTLLATVCLEDPVTQEKAKTLLDKALAQRPDYVKAVVKKAELLSREQKYEDGIALLRNALANQSDCVLHRILGDFLVSVNEYQEAMDQYSIALSLDPNDQKSLEGMQKMEKEGSPTDATQEDDVDDMEGSGEEGDLEGSDSEAAQWADQEQWFGMQ | failed |
| MASNGHTLRLVINRDKHDSVIRGLYLVTDHDDNLIPRVEAAIDGGARVVQYRNKNQDRESRLALGLELRELCRRRSIPFIVNDDLEMAVSLKADGLHLGQGDGDPREARRVLGPGKIIGVSTHTLSEALEAQAAGVDYIGLGAMFPSRSKEVEHVAGSELLAAIRSSISIPIVAIGGITRDNGASVIDAGADAVAVISAVLSHPDPALAATEIALLFNRRAPFPRGSVLTVAGSDSGGGAGIQADLKTVTLLGSYGSSVLTALTAQNTRGVSGIHGVPPAFVADQLDAVFSDIPVDVVKTGMLFSAETIVAIAAKLTEYRRRMVVVDPVMVAKGGANLIDRGAVSVLKERLFPLAYLVTPNIPEAERLTGANISDEESMREAARRLHRLGARNVLLKGGHLLAGDSVDILFDGAAFHRFVSPRILSKNTHGTGCTFASAIATYLAQGDPLREAIARAKRYITAAIRLAQPLGRGHGPVNHILAAEDVRDR | failed |
| SGRLFVRNLSYTSSEEDLEKLFSAYGPLSELHYPIDSLTKKPKGFAFVTFMFPEHAVKAYAEVDGQVFQGRMLHVLPSTIKKEASQ | not failed |
| MAKGNKIPLTFHTYQDAATGTEVVRLTPPDVICHRNYFYQKCFFNDGSKLLFGAAFDGPWNYYLLDLKEQNATQLTEGKGDNTFGGFLSPNDDALYYVKNTRNLMRVDLTTLEEKTIYQVPDDWVGYGTWVANSDCTKMVGIEIKKEDWKPLTDWKKFQEFYFTNPCCRLIRVDLVTGEAETILQENQWLGHPIYRPGDDNTVAFCHEGPHDLVDARMWFINEDGTNMRKVKEHAEGESCTHEFWVPDGSAMIYVSYLKDDTNRYIRSIDPVTLEDRQLRVMPPCSHLMSNYDGTLLVGDGSDAPVDVQDDGGYKIENDPFLYVFNLKTGKEHRIAQHNTSWEVLEGDRQVTHPHPSFTPDNKQVLFTSDVDGKPALYLAKVPDSVWNLEHHHHHH | not failed |
| MITHISPAGSMDLLSQLEVERLKKTASSDLYQLYRNCTLAVLNSGSHTDNSKELLDKHQSFDVNVVRRERGIKLELTDPPEHAFVDGEIIKGIQEHLFSVLRDIVYVNMHLADSQRLNLTNPTHITNLVFGILRNAGALTPGIEPNLVVCWGGHSINGVEYQYTREVGNELGLRELNICTGCGPGAMEGPMKGAAIGHAKQRYTEQRYLGLTEPSIIAA | failed |
| MDHAAVLALFDRDMREGARPDGPGARIERVPGVVRQVASEHGWNGVVWSGLDEASADAAIAEQQRYFAGLGREFEWKLYGHDLPEDLGRRLRAAGFTAAPEETLMVAEVADLTLDVEPPDGVRIVPVTDRAGVDLVADVHEKAFGTDSTRMRHQLLAQVTDDPDAVVAVVALAGDEPVSAARMELVPGTRFAGLWGGGTVEGERGRGIYRALVAHRAKVAADRGYRYVQVDATSQSRPVLARLGFEPLTTTTPYVSP | not failed |
| MDNASEQRNYTTFWVGLASLTLEVVFIMAKSRVKKRPDGRYAMQIYLGTVDGKRKYKTVYGGTPKEVQKKADEVRILMGKGIDISAQRDTFKEWGNHWLKIKKAIVSSAHYKTCEQKLRIINCYIGDMPISQIKTANVQNIIFDLSSLNRWTGKPTAKRTLVEYRSVCRQVFQLAIENRIIDYNPASSVKIVSNQLKKERRALSVEEQGWIINTPHRAQKAAMIMMFAGLRRGEVIPLTWNDIDFEAGTIRVNKSVFKEGTRFNIKSGAKTESGNRVVNIPQILIDFLKLQPKDTILVCPDTKDVMMTETSWRRMWDSYIKDLNIKYGDLNGKRSKYDPKGVPITIPRITPHWLRHTFCTLLYLSGTDVLTAKEQMGHSDIKTTLGIYTHLDKEHKRNAVSKLNEYIETHASHMQVKNS | failed |
| MSEDSELIEQVIEQPDSLIISPPSDSSSSSYNHIQPFVYLESTATTQTNHNVLLILNQKITIDLISLWKKCEIIVCADGGANSLYEYFNDNNHHHHHENLQRSDYIPDYIVGDFDSISPDVKTYYESHGSKIIRQSSQYYNDFTKSIHCIQLHYQLNHTKENWFESIDEVDGLAKLWNGLNNSSDVVVDIDITIYVLNAIGGRFDQTVQSINQLYIMNEDYPKVTVFFITTNDIIFLLKKGVNYISYKNRLMFHKDNGSSPTPTCGLLPLSNKTPIILNSYGLKYDMRNWKTEMLGQVSSSNRISGETGFIVECSDDIVMNIEIDV | not failed |
| MSYLDTATDLPNQTLFLEYLNIALSNARRHHAQVGVLLCQINNWSDLKRKRGDAVANAFLQEAGQKLKSNLRNGDIVSRWDKDEFIFLVSKVQDTSSLLGIAQRLMKPVLAPVTAGGRPFQPEITYGVALYPVDGEQVNDLIGHIRENLQQLLPQPTLEHHHHHH | failed |
| MSLTDEPKLLAEPREGVPNVIDTLPAFRDYCSELASSHGSLAADAERASGFRYGHEDWLVQFKRDGAGIGLLDPQALAAAGADWNDFNRAVGDAVWILHDSLQDLPGFDELGMEPQRLFDTEIAARLLGLKRFGLAAVTEHFLGLTLAKEHSAADWSYRPLPRDWRNYAALDVELLIELETKMRAELKRQGKMEWAQEEFDYALKEGLGPRKEHLIPWMHVSHITEVMRDRQALAIVRALWTRRDELAREYDIAPTLLLSDSSIIEVAKRKPHNAAQFRSIRSINERVRIHTDSEQDKMFERYAPIQRKIKPSMWKNIIQDALALPPSEWPDVDGGAARRHESQSASAPKSIRVWKERYPERLQVLNRVRKAVSQIAEDTRTPVEIVIKPQYLRNLCWTDEPRKRDVARFLSEQGARDWQVSLVAESVSRAIEGHHHHHH | not failed |
| MLDPYRRYRHARLIHAVRVALGLIATILLTTGLNLPHGEWASVTMLVVIGGLQHHGNIGKKAAERAIGTLVGAGVGLVLVVQQAYFGHPWLTYLGMSVVCGYFSYHAIGKGGYTALLAAITVFIVAGHGDNQVSDGLWRAVDILIGIALALAFSFAIPLYAVYSWRYNLASALRDCAQLYGRIIKGQSVTDDEHLKLLGRVNSAMLQLRSLMPSVSKEVRISMTELDAIQRNLRMCISTLEILGNTRPDASDPQAMAQMQLALKAEHRQIRVQLIGMARALQSGVTQRLEKSVEGHPENALEAPVYSALDGYRLLTRQLAATLGEMHQRLAKSARHWKI | failed |
| MPKKAREWGALDVKRAAHPGDGANVWHAVGGVAGLLLQITPTGAKSWLLRTTVAGTRRAMGLGSYPEVGLAEARERAREAKRKIAAGVDPIEERKATRAALAAAQRRSLTFADAADKWIKAKLSDRPEKSQKAVRATLTAYSFPEIGALTVQELTPQDVVRALNTIWTAKPDTATKMRGYLEAILSWATVSGYRTGDNPARWAGNLKELLPAPSVVAKGRAGNFPAVPVARLADWWEELGQREGMGATALRFAALTAARSGEVRGALWSEVDLDAALWVVPGARMKMGREHRVPLSGPAVALLRGLPRLAGTGDLIFPGPRGGILSDMSVSAVMRRMQEDAETEAKMAGRPVSAAGWRDTRTGRPAVPHGLRSSFRDWAAEVGYDRDMAEIALAHLVGSEVERAYRRSDMLERRRAMMERWADVLAGRSGASVVEFRRA | failed |
| MEDKPLGILRVHVKRGINLAIRDATTSDPYVVITLANQKLKTRVINNNCNPVWNEQLTLSIKDVNDPIRLTVFDKDRFSGDDKMGDAEIDFRPFLEAHQMELDFQKLPNGCAIKRIRPGRTNCLAEESSITWSNGKIMQEMILRLKNVECGEVELMLEWTDGPGCKGLGREGSKKTPWMPTKRLD | failed |
| GYIQMPLFRLHVQVFTPEREIPLGTVCLLHGYLEHSGIYQPIIREILDQGFSVVTYDLPGHGLSDGSPANIQNFDHYQQVLMAVYQYVKNADQLPKPWLGIGQSTGGAIWMHHLLEYAEKRQDPIVDRVLLLSPLIRPAKTAWWHNSVGLGIIRRIRRQVPRHFRRNNHNPEFLRFIRLKDPLQPRMMGMDWILAMSKWMFEMEQRPACRIPVWLAQGALDQTVDWRYNIEFIRRKFRLQTLLMLEEGSHQLINERADIRAALTGLIPAFLHAR | failed |
| MRKDETSNTSPDISVAQPASALRYHLRPPRRNDGAAIHQLVSECPPLDLNSLYAYLLLCEHHAHTCVVAESPGGRIDGFVSAYLLPTRPDVLFVWQVAVHSRARGHRLGRAMLGHILERQECRHVRHLETTVGPDNQASRRTFAGLAGERGAHVSEQPFFDRQAFGGADHDDEMLLRIGPFTHPPH | not failed |

From a protein production outcome set (Wang et al. 2014)
